Patent US20240360194A1, “New Peptides as Potent and Selective GIP Receptor Agonists” (Sanofi, priority 2021, published 2024)
In brackets after ≈: the same amount, converted by molar mass. Numbered stars: 1 amine (or outer) side, 2 acyl side, 3 side chain; on linkers, the order of the positions; unused ones are H or OH. Square brackets hold non-standard residues; d marks the D form. Side chains are listed from the residue outwards. Ends that are not written are not given here. Peptide text beside a SMILES is read from it. * marks the point of attachment. C18 diacid = O=C(O)CCCCCCCCCCCCCCCCC(=O)*; γGlu = O=C(O)[C@H](CCC(=O)[*:2])N[*:1]; Iva = CC[C@](C)(N)C(=O)O; AEEA = NCCOCCOCC(=O)O; Aib = CC(C)(N)C(=O)O

Assays:
[1] = Chemical stability assessment (UHPLC-UV purity loss on storage in solution); assay type: physicochemical; settings: Chemical stability buffer system A: 20 mM phosphate buffer pH 7.4; ~300 μM
Procedure: Purity of a peptide batch was determined through UHPLC/MS prior to chemical stability measurement. The target concentration was 300 μM pure compound. Solutions from solid samples were prepared in the following buffer systems with a concentration of ˜300 μM compound based on the previously determined % purity: • Chemical stability buffer system A) 20 mM phosphate buffer pH 7.4, • Chemical stability buffer system B) 8 mM phosphate buffer pH 7.4, 14 mg/ml propylene glycol, 5.5 mg/ml phenol • Chemical stability buffer system C) 100 mM phosphate buffer pH 7.4, 2.7 mg/ml m-cresol
Prepared solutions were filtered through […] pore size and filled into sterilized glass containers under laminar flow conditions.
Glass containers were stored for 28 days at 5 and 40° C. After this time, the samples were centrifuged for 15 min at 2500 RCF. Then 1.5 μl of the undiluted supernatant were analysed with UHPLC-UV.
The chemical stability was rated through the relative loss of purity calculated by the equation: […]
The purity is calculated as
The analytical methods used were Analytical UHPLC Method B or C.
Peptide samples were prepared in Chemical stability buffer system A or B and stability was assessed as described in Methods.

[2] = Solubility assessment (UHPLC-UV of supernatant, target 10 mg/ml); assay type: physicochemical
How it was run: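 Peptides at 10 mg/ml (purity-corrected) in 100 mM phosphate pH 7.4, optionally with 2.7 mg/ml m-cresol; gentle agitation 1 h, then 5° C. overnight (24 h). Supernatant after 15 min centrifugation at 2500 RCF quantified by UHPLC-UV, with sequence-based extinction coefficients.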

[3] = target: human GLP-1 receptor (hGLP-1R) (Homo sapiens, UniProt P43220); experiment: In vitro cellular cAMP assay for GLP-1 receptor efficacy (HEK-293 cell line over-expressing receptor); assay type: cell-based; settings: HEK-293, 0.1% BSA
[4] = target: T1, human GIP receptor (Homo sapiens, UniProt P48546); experiment: In vitro cellular cAMP assay for GIP receptor efficacy (human adipocytes); assay type: cell-based; settings: read-out: hGIPR Emax
T1 construct: human adipocytes endogenously expressing the human GIP receptor; host or cells: human preadipocytes (Lonza) differentiated to adipocytes
T1 sequence (P48546 22-466): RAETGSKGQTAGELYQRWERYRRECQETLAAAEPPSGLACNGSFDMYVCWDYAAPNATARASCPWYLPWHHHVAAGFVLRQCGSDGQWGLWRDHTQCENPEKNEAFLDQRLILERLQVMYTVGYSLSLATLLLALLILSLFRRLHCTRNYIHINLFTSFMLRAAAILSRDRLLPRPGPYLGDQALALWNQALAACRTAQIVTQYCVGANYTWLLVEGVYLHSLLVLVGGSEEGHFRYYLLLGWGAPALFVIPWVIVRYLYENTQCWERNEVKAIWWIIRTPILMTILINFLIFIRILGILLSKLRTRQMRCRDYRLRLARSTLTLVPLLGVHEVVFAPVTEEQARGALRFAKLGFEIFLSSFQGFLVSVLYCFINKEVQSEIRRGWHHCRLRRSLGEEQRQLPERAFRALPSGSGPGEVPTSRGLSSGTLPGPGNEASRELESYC
How it was run: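 cAMP is read by HTRF (665/620 nm ratio, 1 h after reagents in lysis buffer) following 30 min compound exposure at room temperature. Cells are human preadipocyte-derived adipocytes, differentiated 6 days with insulin, dexamethasone, IBMX (200 μM), PPARγ agonist and L-thyroxine, seeded 5000 per well.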

[5] = target: T2, human GIP receptor (hGIPR) (Homo sapiens, UniProt P48546); experiment: Binding assay, displacement of [125I]GIP from HEK-293 membranes over-expressing GIPR (SPA); settings: [125I]GIP displacement
T2 sequence (P48546 22-466): T1 sequence (P48546 22-466)
How it was run: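 Membranes from HEK-293 cells over-expressing human GIPR or GLP-1R, isolated by homogenising, sonicating and ultracentrifuging at 100000×g into HEPES/EDTA/NaCl buffer with protease inhibitors, were used for binding.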

[6] = target: T3, human GIP receptor (human, UniProt P48546 22-466); experiment: cell-based or functional assay
T3 sequence (looked up): T1 sequence (P48546 22-466)

[7] = target: T4, human GLP-1 receptor (human, UniProt P43220 24-463); experiment: cell-based or functional assay
[8] = target: T3, human GIP receptor; experiment: cell-based or functional assay; remark: listed apart in the source
[9] = target: T3, human GIP receptor; experiment: displacement of [125I]GIP from HEK-293 membranes expressing hGIPR (SPA beads)
[10] = target: T5, human GIP receptor (human), P48546; experiment: cell-based or functional assay
T5 chain: T1 sequence (P48546 22-466)

[11] = target: T5, human GIP receptor (human), P48546; experiment: displacement of [125I]GIP from HEK-293 membranes expressing hGIPR (SPA beads)
[12] = target: T6, human GLP-1 receptor (human), P43220; experiment: displacement of [125I]GLP-1 from HEK-293 membranes expressing hGLP-1R (SPA beads)
T6 chain: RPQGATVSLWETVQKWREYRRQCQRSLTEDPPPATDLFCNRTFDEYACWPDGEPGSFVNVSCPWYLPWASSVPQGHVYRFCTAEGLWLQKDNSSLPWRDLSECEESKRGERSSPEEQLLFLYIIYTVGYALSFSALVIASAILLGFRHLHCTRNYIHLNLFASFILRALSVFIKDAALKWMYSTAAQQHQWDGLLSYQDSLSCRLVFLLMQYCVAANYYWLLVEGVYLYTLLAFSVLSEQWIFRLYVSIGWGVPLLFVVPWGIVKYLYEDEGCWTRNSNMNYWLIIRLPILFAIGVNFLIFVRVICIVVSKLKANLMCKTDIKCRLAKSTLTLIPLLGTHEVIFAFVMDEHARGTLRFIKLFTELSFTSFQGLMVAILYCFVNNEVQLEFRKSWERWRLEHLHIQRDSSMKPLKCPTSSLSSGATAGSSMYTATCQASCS

[13] = target: T4, human GLP-1 receptor; experiment: as above

Which results are given for `CC[C@H](C)[C@H](NC(=O)[C@H](CCCNC(=N)N)NC(=O)[C@H](CC(=O)O)NC(=O)[C@H](CCCCNC(=O)COCCOCCNC(=O)COCCOCCNC(=O)CC[C@H](NC(=O)CCCCCCCCCCCCCCCCC(=O)O)C(=O)O)NC(=O)C(C)(C)NC(=O)[C@@H](NC(=O)[C@H](CO)NC(=O)[C@H](CC(C)C)NC(=O)[C@H](CC(=O)O)NC(=O)[C@H](CO)NC(=O)[C@@H](NC(=O)[C@H](Cc1ccccc1)NC(=O)[C@@H](NC(=O)CNC(=O)[C@H](CCC(=O)O)NC(=O)C(C)(C)NC(=O)[C@@H](N)Cc1ccc(O)cc1)[C@@H](C)O)[C@@H](C)CC)[C@@H](C)CC)C(=O)N[C@@H](Cc1c[nH]cn1)C(=O)N[C@@H](CCC(N)=O)C(=O)NC(C)(C)C(=O)N[C@@H](CCC(=O)O)C(=O)N[C@@H](Cc1ccccc1)C(=O)N[C@H](C(=O)N[C@@H](CCC(=O)O)C(=O)N[C@@H](Cc1c[nH]c2ccccc12)C(=O)N[C@@H](CC(C)C)C(=O)N[C@@H](CC(C)C)C(=O)N[C@@H](C)C(=O)N[C@@H](CCC(N)=O)C(=O)N[C@@H](CCC(=O)O)C(=O)N1CCC[C@H]1C(=O)N[C@@H](CO)C(=O)N[C@@H](CO)C(=O)NCC(=O)N[C@@H](C)C(=O)N1CCC[C@H]1C(=O)N1CCC[C@H]1C(=O)N1CCC[C@H]1C(=O)N[C@@H](CO)C(N)=O)[C@@H](C)CC` [SEQ ID NO: 29, H2N-Y-Aib-E-G-T-F-I-S-D-L-S-I-Aib-K[{AEEA}2-gGlu-C18OH]-D-R-I-H-Q-Aib-E-F-I-E-W-L-L-A-Q-E-P-S-S-G-A-P-P-P-S-NH2] (H-Y[Aib]EGTFISDLSI[Aib]K([AEEA-AEEA-γGlu-C18 diacid])DRIHQ[Aib]EFIEWLLAQEPSSGAPPPS-NH2)?
Relative purity loss over 28 days at 40° C. [1]: 5.6%; Soluble amount ([2]; 24 h, pH 7.4): 9.1 mg/mL; solubility at 24 h ([2]; pH 7.4, Soluble amount): 8000 µg/mL (≈ 1590 µM); EC50 [3]: > 10 nM; Emax [4]: 119%; IC50 [5]: 0.2 nM

B1: SEQ ID NO: 19 (peptide)
peptide: Y[Aib]EGTFISDLSI[Aib]K([AEEA-AEEA-γGlu-C18 diacid])EEIHQ[Aib]EFIEWLLAQGPSSGAPPPS-NH2
modifications: N-terminus assumed
SMILES: CC[C@H](C)[C@H](NC(=O)[C@H](CCC(=O)O)NC(=O)[C@H](CCC(=O)O)NC(=O)[C@H](CCCCNC(=O)COCCOCCNC(=O)COCCOCCNC(=O)CC[C@H](NC(=O)CCCCCCCCCCCCCCCCC(=O)O)C(=O)O)NC(=O)C(C)(C)NC(=O)[C@@H](NC(=O)[C@H](CO)NC(=O)[C@H](CC(C)C)NC(=O)[C@H](CC(=O)O)NC(=O)[C@H](CO)NC(=O)[C@@H](NC(=O)[C@H](Cc1ccccc1)NC(=O)[C@@H](NC(=O)CNC(=O)[C@H](CCC(=O)O)NC(=O)C(C)(C)NC(=O)[C@@H](N)Cc1ccc(O)cc1)[C@@H](C)O)[C@@H](C)CC)[C@@H](C)CC)C(=O)N[C@@H](Cc1c[nH]cn1)C(=O)N[C@@H](CCC(N)=O)C(=O)NC(C)(C)C(=O)N[C@@H](CCC(=O)O)C(=O)N[C@@H](Cc1ccccc1)C(=O)N[C@H](C(=O)N[C@@H](CCC(=O)O)C(=O)N[C@@H](Cc1c[nH]c2ccccc12)C(=O)N[C@@H](CC(C)C)C(=O)N[C@@H](CC(C)C)C(=O)N[C@@H](C)C(=O)N[C@@H](CCC(N)=O)C(=O)NCC(=O)N1CCC[C@H]1C(=O)N[C@@H](CO)C(=O)N[C@@H](CO)C(=O)NCC(=O)N[C@@H](C)C(=O)N1CCC[C@H]1C(=O)N1CCC[C@H]1C(=O)N1CCC[C@H]1C(=O)N[C@@H](CO)C(N)=O)[C@@H](C)CC
notes: Synthetic peptide, 39 residues
For B1, which “EC50 hGIPR 0% HSA (cAMP, HEK-293)” value [6] is on record?
The value was 0.0002 nM.

What about the “EC50 hGIPR 0.1% BSA (cAMP, HEK-293)” value [6] of the same molecule?
The value was 0.0378 nM.

What about the “EC50 hGIPR 0.1% HSA (cAMP, HEK-293)” value [6] of the same molecule?
Its value is 0.0015 nM.

And the “EC50 hGLP-1R 0.1% BSA (cAMP, HEK-293)” value [7]?
The value was > 10 nM.

And the “hGIPR EC50 (cAMP, human adipocytes)” value [8]?
The value was 8 nM.

And the “hGIPR Emax (cAMP, human adipocytes)” value [8]?
Its value is 94%.

And the IC50 [9]?
Its IC50 is 2 nM.

With Y[Aib]EGTFISDLSI[Aib]LEEQKQ[Aib]EFIEWLLAQGPSSGEPPPS-NH2 [SEQ ID NO: 38] as the molecule, how does the EC50 hGIPR 0% HSA (cAMP, HEK-293) [10] read?
The EC50 hGIPR 0% HSA (cAMP, HEK-293) was 0.00019 nM.

What about the EC50 hGIPR 0.1% BSA (cAMP, HEK-293) [10] of the same molecule?
The EC50 hGIPR 0.1% BSA (cAMP, HEK-293) was 0.0531 nM.

What about the hGIPR EC50 (cAMP, human adipocytes) [10] of the same molecule?
The hGIPR EC50 (cAMP, human adipocytes) was 0.4 nM.

What about the hGIPR Emax (cAMP, human adipocytes) [10] of the same molecule?
Its hGIPR Emax (cAMP, human adipocytes) is 92%.

And the IC50 [11]?
The IC50 was 0.2 nM.

What about the IC50 [12] of the same molecule?
The IC50 was 73 nM.

Which results are given for H-Y[Aib]EGT[Iva]ISDLSI[Aib]K([AEEA-AEEA-γGlu-C18 diacid])DRIHQEEFIEWLLAQGPSSGAPPPS-NH2 (Synthetic peptide, 39 residues) [SEQ ID NO: 24]?
EC50 hGIPR 0% HSA (cAMP, HEK-293) [6]: 0.00056 nM; EC50 hGIPR 0.1% BSA (cAMP, HEK-293) [6]: 0.0366 nM; EC50 hGLP-1R 0.1% BSA (cAMP, HEK-293) [7]: > 10 nM; hGIPR EC50 (cAMP, human adipocytes) [8]: 0.2 nM; hGIPR Emax (cAMP, human adipocytes) [8]: 100%; IC50 [9]: 0.1 nM; IC50 [13]: 188 nM
